Values of other authors as cited in publication PMC12250766.
Where two headings read alike, the source gives them in different places.

Legend:
[1] = target: PSGL-1 model glycosulfopeptide (Homo sapiens) (UniProt Q14242)
[2] = target: PSGL-1 model glycosulfopeptide (Homo sapiens) (UniProt Q14242); remark: listed apart in the source
[3] = target: PSGL-1 model glycopeptide (Homo sapiens) (UniProt Q14242)
[4] = target: PSGL-1 (Homo sapiens) (UniProt Q14242)
[5] = target: PSGL-1 (Homo sapiens) (UniProt Q14242); remark: listed apart in the source

**Q.** What does the source list for P-selectin (from UniProt P16109)?
**A.** Kd [1]: 6 µM; Kd [2]: 0.65 µM; Kd [3]: 25 µM

**Q.** With L-selectin (from UniProt P14151) as the substance, how does the Kd [4] read?
**A.** Its Kd is 5 µM.

**Q.** Which Kd [5] does the source give for E-selectin (from UniProt P16581) here?
**A.** Its Kd is 15 µM.
